{
  "source": "paper PMC10830420",
  "key": {"[1]": {"target": "T1, ORF2p core (human (Homo sapiens), UniProt O00370 238-1061)", "experiment": "cryo-EM (3.66 A); DSF: 20 mM HEPES-KOH pH 7.6, 100 mM NaCl, 1 mM DTT, 2 mM Mg acetate, thermal ramp; crystals: protein 3 mg/mL, 50 mM NaCl dilution, 2 mM MgCl2, 2 mM dTTP, 1.3:1"}, "[2]": {"target": "ORF2p-His8 core (human (Homo sapiens), UniProt O00370 238-1061)", "experiment": "X-ray crystallography (2.1 A); dTTP, Mg2+; DSF: 20 mM HEPES-KOH pH 7.6, 100 mM NaCl, 1 mM DTT, 2 mM Mg acetate, thermal ramp; crystals: protein 3 mg/mL, 50 mM NaCl dilution, 2 mM MgCl2, 2 mM dTTP, 1.3:1"}, "[3]": {"target": "T1, ORF2p core", "experiment": "cryo-EM (3.30 A); dTTP, Mg2+; DSF: 20 mM HEPES-KOH pH 7.6, 100 mM NaCl, 1 mM DTT, 2 mM Mg acetate, thermal ramp; crystals: protein 3 mg/mL, 50 mM NaCl dilution, 2 mM MgCl2, 2 mM dTTP, 1.3:1"}},
  "data": [
    {"binder": "AAAAAAAAAAAAAAAAAAAAAAAAA (ssRNA)", "note": "[oligo-25(A) ssRNA]", "values": [
      {"measurement": "binding result", "setting": "[1]", "value": "binds"}
    ]},
    {"binder": "crystallography RNA template:DNA primer hybrid (DNA:RNA, 3' dideoxy-C on DNA primer) RNA: UUAGGAAAGCGC DNA: GCGCTTTCC", "values": [
      {"measurement": "binding result", "setting": "[2]", "value": "binds"}
    ]},
    {"binder": "cryo-EM RNA:DNA hybrid (DNA:RNA, 3' dideoxy-C on DNA primer) RNA: GGAGCGAAAUUUUCGC DNA: GCGAAAATTTCGC", "values": [
      {"measurement": "binding result", "setting": "[3]", "value": "binds"}
    ]}
  ]
}
